Data: patent US20230183289A1 (ANPEP, published 2023)

biological target: elastase (type I: derived from porcine pancreas, Sigma Aldrich) (porcine, UniProt P00772 27-266); assay: cell-based or functional assay
Sequence (P00772 27-266 limits assumed): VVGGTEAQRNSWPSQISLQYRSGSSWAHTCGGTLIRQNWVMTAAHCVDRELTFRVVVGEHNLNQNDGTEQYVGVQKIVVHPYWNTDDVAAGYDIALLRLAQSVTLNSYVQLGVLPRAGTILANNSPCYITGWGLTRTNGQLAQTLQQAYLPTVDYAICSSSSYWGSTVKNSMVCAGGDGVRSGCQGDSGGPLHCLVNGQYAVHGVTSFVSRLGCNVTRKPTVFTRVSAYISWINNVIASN

In order of rising “Elastase Inhibition Rate (%)” value:
1. GQVS [Sample 10 tetrapeptide GQVS]  33.9%
2. GQDP [Sample 34 tetrapeptide GQDP]  34.5%
3. KTSG [Sample 7 tetrapeptide KTSG]  44.5%
4. CFSS [Sample 21 tetrapeptide CFSS]  47.4%
5. SQQV [Sample 12 tetrapeptide SQQV]  49.3%
6. EVQW [Sample 42 tetrapeptide EVQW]  49.5%
7. SGGS [Sample 8 tetrapeptide SGGS]  49.6%
8. GCFS [Sample 20 tetrapeptide GCFS]  55.2%
9. QMGQ [Sample 33 tetrapeptide QMGQ]  55.6%
10. VEHQ [Sample 40 tetrapeptide VEHQ]  55.7%
11. GQLK [Sample 27 tetrapeptide GQLK]  56%
12. GSGY [Sample 9 tetrapeptide GSGY]  56.3%
13. GSSG [Sample 19 tetrapeptide GSSG]  58.3%
14. TQTS [Sample 13 tetrapeptide TQTS]  59%
15. TKGE [Sample 38 tetrapeptide TKGE]  59.3%
16. QLKY [Sample 35 tetrapeptide QLKY]  60.5%
17. VLLP [Sample 39 tetrapeptide VLLP]  60.7%
18. QPSY [Sample 15 tetrapeptide QPSY]  63.5%
19. PEEQ [Sample 32 tetrapeptide PEEQ]  64%
20. VKTS [Sample 6 tetrapeptide VKTS]  66.3%
21. EHQE [Sample 29 tetrapeptide EHQE]  66.3%
22. YGGG [Sample 16 tetrapeptide YGGG]  67.1%
23. FSSG [Sample 22 tetrapeptide FSSG]  69.1%
24. PTPQ [Sample 3 tetrapeptide PTPQ]  69.3%
25. EGQL [Sample 30 tetrapeptide EGQL]  69.7%
26. LEVP [Sample 31 tetrapeptide LEVP]  70.6%
27. YLEQ [Sample 36 tetrapeptide YLEQ]  72.3%
28. QQKQ [Sample 41 tetrapeptide QQKQ]  72.3%
29. PPVD [Sample 4 tetrapeptide PPVD]  72.5%
30. GQLE [Sample 23 tetrapeptide GQLE]  73.2%
31. SSGG [Sample 17 tetrapeptide SSGG]  77%
32. CAPQ [Sample 14 tetrapeptide CAPQ]  77.2%
33. LELP [Sample 26 tetrapeptide LELP]  78.2%
34. GYVS [Sample 11 tetrapeptide GYVS]  78.5%
35. KHLE [Sample 28 tetrapeptide KHLE]  79.3%
36. MSYQ [Sample 1 tetrapeptide MSYQ]  79.4%
37. QKKQ [Sample 2 tetrapeptide QKKQ]  88.7%
38. ELPE [Sample 24 tetrapeptide ELPE]  90.5%
39. GGSG [Sample 18 tetrapeptide GGSG]  104%
40. DCVK [Sample 5 tetrapeptide DCVK]  118%
